{
  "source": "patent US5616475",
  "target": "T1, TRC-1 (p21 SNF-1/JunB heteromultimer), SLB-I nuclear extract (Homo sapiens) (UniProt Q9NR55+P17275)",
  "T1 sequence 1": "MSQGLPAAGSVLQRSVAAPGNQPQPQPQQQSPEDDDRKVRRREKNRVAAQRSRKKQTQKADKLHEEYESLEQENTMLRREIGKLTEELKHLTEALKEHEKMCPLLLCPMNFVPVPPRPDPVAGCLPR",
  "T1 sequence 2": "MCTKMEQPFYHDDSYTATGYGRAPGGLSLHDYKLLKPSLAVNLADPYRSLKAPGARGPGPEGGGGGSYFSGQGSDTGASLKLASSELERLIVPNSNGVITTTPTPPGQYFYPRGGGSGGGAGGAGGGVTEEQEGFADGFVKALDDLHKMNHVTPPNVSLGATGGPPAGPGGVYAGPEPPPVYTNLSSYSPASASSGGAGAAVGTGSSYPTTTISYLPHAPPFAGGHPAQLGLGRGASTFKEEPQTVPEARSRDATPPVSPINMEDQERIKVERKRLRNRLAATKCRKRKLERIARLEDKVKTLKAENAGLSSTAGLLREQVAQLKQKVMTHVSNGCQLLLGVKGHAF",
  "assay": "competition",
  "details": "EMSA, site2 probe",
  "data": [
    {"substance": "HTLV-1 LTR 21-bp repeat site2 (s2)", "values": [
      {"measurement": "binding signal (% competition at 12.5-fold excess)", "setting": "on ice", "value": 55}
    ]},
    {"substance": "HTLV-1 LTR 21-bp repeat site3 (s3)", "values": [
      {"measurement": "binding signal (fold excess for 55% competition)", "setting": "nearly 50-fold", "value": 50}
    ]},
    {"substance": "HTLV-1 LTR 21-bp repeat site1 (s1)", "values": [
      {"measurement": "binding signal (fold excess for 55% competition)", "value": 100}
    ]}
  ]
}
